Laboratory results reported in the supplement of paper PMC9170038.

System: MS2 coat protein
Assay: apparent KD of MS2 coat protein; designed switch direction (-1 OFF switch, 1 ON switch): 1; higher = weaker reporter binding
Procedure, shortened: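 SNAP-549-labelled MS2 coat protein was titrated, doubling from 0.7 or 1.5 nM to 3 µM, over designed RNA switches transcribed on Illumina chips by stalled E. coli RNA polymerase. Runs were done without input, with 200 uM small-molecule ligand, or with an oligonucleotide input. Apparent KD is the per-design median over clusters of curve-fitted normalised fluorescence.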

[1] = Eterna round: R95, input ligand: FMN 200 uM
[2] = Eterna round: R95, input ligand: microRNA oligo, concentration not stated
[3] = Eterna round: R95, input ligand: none
[4] = input ligand: microRNA oligo, concentration not stated

Sequence	apparent KD of MS2 coat protein [1] [nM]	apparent KD of MS2 coat protein [2] [nM]	apparent KD of MS2 coat protein [3] [nM]	apparent KD of MS2 coat protein (input ligand: FMN 200 uM) [nM]	apparent KD of MS2 coat protein [4] [nM]	apparent KD of MS2 coat protein (input ligand: none) [nM]
AUAAAACAUGAGGAUCACCCAUGUCAACAAAGUCGAGGAUAUGGGCAAAUAAAAUAAGUACCAGAAGGCGAAUAAU [salish99_ss1_r3_017] (puzzle: Same State 1)	34.1	106	108	–	–	–
UGAGCCGGCACUGAGGAUAUUCAUAAUAAAACAUGAGGAUCACCCAUGUAGGCCAGAAGGCCUUGGGAGAAGGCAGGUCGGCUCU [Mat - Same State 2 - Mod of UCT - D70] (puzzle: Same State 2)	13.8	142	292	–	–	–
CAAGGGUACGGAUUAGUACAUGAGGAUCACCCAUGUAUCCGACAGGAUAUCAUGUAAGAAGCCAGUGAGAAGGGUCUAGUCCAA [Eternabot solution 43] (Eterna round: R96, puzzle: Same State NG 3)	–	–	–	367	205	460
AUUGCUUACGCAGGAUAUGAUGCGAAAAUUGCGUCAGAAGGGUGAAGUGACUCGUUGCAACAGGACAUGAGGAUCACCCAUGUC [SameState NG1 #91] (Eterna round: R96, puzzle: Same State NG 1)	–	–	–	89	127	141
GCUCGAUGAGCUGUCUACAUGAGGAUCACCCAUGUAGAUGGGCAGGAUAUUUACGUGCUUUAUGUAGAGAAGGGCCCAUCGAGC [SameState NG3 #78] (Eterna round: R96, puzzle: Same State NG 3)	–	–	–	15.5	123	169
UUGAAGAAUUAAGGAUAUUGAAUACAUAUGUUUAACAUGAGGAUCACCCAUGUGGGUUGCGGUGUCGAGAAGGUAAAUUACUAG [JL SSNG2 1.50] (Eterna round: R96, puzzle: Same State NG 2)	–	–	–	256	177	207
CAUUCUUUUCCGGAGGAUAUGCUACCCUUUACAUGAGGAUCACCCAUGUUACCCUCUUCUUGUCAGUAGAAGGCCGUUUCUUAAC [Regan] (puzzle: Same State 2)	–	27.3	–	–	–	–
AAUUAUUAACAUGAGGAUCACCCAUGUAUUAUUAUUAUUAUUAACAAGCUUUUUCAUGUUAUUAGCUCGUCUUAUAA [Bojan's Design 2] (puzzle: Sensor for hsa-mir-208a version 2)	16.5	31.7	15.4	–	–	–
UAUAAACAUGAGGAUCACCCAUGUAAUAAUAUGGGAGGAUAUCAGAUUUAAUUUAAUUUAUGAGAAGGCCUAAUAU [Mat - Same State 1 - Mod of Eli - D66] (Eterna round: R96, puzzle: Same State 1)	–	–	–	–	427	–
UUAAGCCACGGGCAGGAUAUGUAUUAAAAUACAUGAGGAUCACCCAUGUGCAGGUGUAACACCUGACAGAAGGGCCAAUCGAGGC [Soteed - 6] (puzzle: Same State 2)	36.6	182	284	–	–	–
GUGGCCCAGGCACAGGAUAUGUUUCUCGUAACAUGAGGAUCACCCAUGUGCCUAUGAGAUAUAAUGCAGAAGGGUGCACGCCACG [Mat - Same State 2 - Mod of UCT - D80] (puzzle: Same State 2)	16.2	68.2	60.9	–	–	–
AUUACUAACAUAGGAUAUCAUGCGAAAAUUGCGUGAGAAGGGUGGACACUGUCUUUCUCGGAGCACAUGAGGAUCACCCAUGUG [SameState NG1 #69] (Eterna round: R96, puzzle: Same State NG 1)	–	–	–	81.4	41.5	65
AUGAAGAAUUAAGGAUAUUGAUUACAUAUGUUUAACAUGAGGAUCACCCAUGUGGGUUGCGGUAUCGAGAAGGUAAAUUACUAG [JL SSNG2 1.48] (Eterna round: R96, puzzle: Same State NG 2)	–	–	–	150	99.6	128
GAAUAGUUGAGAGGAUAUCUAUUAUAAAAGGAUAGAGAAGGUUUUAACAUGAGGAUCACCCAUGUAGGACUAUAUAUGUGAAUA [Parity 100 - Jieux - Same State NG 1] (Eterna round: R96, puzzle: Same State NG 1)	–	–	–	16.2	13.6	16.1
UGAAGAUCCAUAGGAUAUCCGACACAUGAGGAUCACCCAUGUCAACCAAACGCAGCUUCGGCCGUGGAGAAGGAUGGAGCUGUG [Eternabot solution 3] (Eterna round: R96, puzzle: Same State NG 2)	–	–	–	72.4	41.5	76.4
UCUUGGUUUUUGCUCGUUUUUUGUGUUGAACAUGAGGAUCACCCAUGUAUUGUACGGUCCGGUUUAGUGAUGAUCCG [JMF 73] (puzzle: Sensor for hsa-mir-208a)	39.1	31.3	45.6	–	–	–

Sequence	apparent KD of MS2 coat protein [1] [nM]	apparent KD of MS2 coat protein [2] [nM]	apparent KD of MS2 coat protein [3] [nM]	apparent KD of MS2 coat protein (input ligand: FMN 200 uM) [nM]	apparent KD of MS2 coat protein [4] [nM]	apparent KD of MS2 coat protein (input ligand: none) [nM]
GCUCGGAUGAUGACCCACAUGAGGAUCACCCAUGUGCGUGGGCAGGAUAUCUAGAUUAAGGAUGUAGAGAAGGGUCUACCGAGC [SameState NG3 #31] (Eterna round: R96, puzzle: Same State NG 3)	–	–	–	964	318	407
UGGUACAUGGGAGGAUAUCAUGUAGAAACAUGAGGAUCACCCAUGUGGAUGGAGACAUCGGAGAUUGAGAAGGCCCAUGUACCU [JL SSNG1 3.56] (Eterna round: R96, puzzle: Same State NG 2)	–	–	–	15.6	20.9	25.2
UUAUAACAUGAGGAUCACCCAUGUCAACAAAGUCGAGGAUAUGGGCAUAGAUUAUAAGAACCAGAAGGCGAAUAUG [Mat - Same State 1 - Mod of UCT - D41] (puzzle: Same State 1)	140	11.3	1.69	–	–	–
AUUAAUAAUCGAGGAUAUCACGUCGAAUAGACGUGAGAAGGCGAUCAUAACAUGAGGAUCACCCAUGUAUUACAUGAAAUUAAU [SSNG1/4-B4] (Eterna round: R96, puzzle: Same State NG 1)	–	–	–	22.4	20.5	38.1
GGUGCGAAUAAAGCCUACAUGAGGAUCACCCAUGUAUGUAGGCAGGAUAUCGUUUGCUUUGCAAACGAGAAGGGCUGUCGCACC [JL SSNG3 1.16] (Eterna round: R96, puzzle: Same State NG 3)	–	–	–	21.9	49	70.7
CUACUACAUGAGGAUCACCCAUGUUGUAGUGAUGCAGGAUAUGUGUGACCAGAAGAUGAAACAGAAGGGCAAAGAA [JR_SS!_Sub002] (puzzle: Same State 1)	13.5	15.9	15.2	–	–	–
GGAUGAUUAACAGGAUAUCAUUUGUAAAUUCGAUGAGAAGGGUUGAUUACUUACACGACGUGUUACAUGAGGAUCACCCAUGUU [SameState NG1 #6] (Eterna round: R96, puzzle: Same State NG 1)	–	–	–	372	385	548
AUUUUUAAUGCAGGAUAUGAUUAACAUGAGGAUCACCCAUGUGGUGUUGUGAGUAAGGAGAGUGAUCAGAAGGGCAUUUUUUCU [JMF's solution 88] (Eterna round: R96, puzzle: Same State NG 2)	–	–	–	340	391	500
GUGGUCAGACAUGAGGAUCACCCAUGUGGAAUAAAUAAGGUCAAGGAUAUUCAAUAUAGGAUAUAGAAGAAGGUGAGGUUGGUG (Eterna round: R96, puzzle: Same State NG 3)	–	–	–	–	108	–
ACAUGAGAGUUAGGAUAUCUUGUACCUACAUGUGACAUGAGGAUCACCCAUGUGGUAAGUAUGAGGGAGAAGGGACAGAUAUGU [Equivalence 44 - Jieux - Same State NG 2] (Eterna round: R96, puzzle: Same State NG 2)	–	–	–	67.4	54.4	84.7
UGUUGUAUUACAGGAUAUCUAUUGUUUUUAGUUAGAGAAGGGUAUUCACAUGAGGAUCACCCAUGUAUAUACGAGGAAGUUGUG [JMF's solution 82] (Eterna round: R96, puzzle: Same State NG 1)	–	–	–	59.9	34.6	49.9
GAAAAGGCGACGCAGGAUAUGAAAGGUGAAACAUGAGGAUCACCCAUGUGCUACCUUCCGAUAAAUCAGAAGGGCGACGCCUAGA [Azaanre] (puzzle: Same State 2)	11.4	9.79	11.3	–	–	–
GGGAGAGCCGCAGGAUAUGGUGAGGAUUACCCACUAGAAGGGUGGACAUGAGAAUCGAACAUGAGGAUCACCCAUGUUCUGAGG (Eterna round: R96, puzzle: Same State NG 1)	–	–	–	200	219	386
CUCAAACAUGAGGAUCACCCAUGUGUUGUCAUGGGAGGAUAUCUAAGUUCAUUGUAUUCGGGAGAAGGCCUAUGUC [× ×•×ª×• ×ž×“×™× ×” × ×—×ª-09] (puzzle: Same State 1)	–	362	–	–	–	–
GCAGGACAUGAGGAUCACCCAUGUCUCAAAUAUUGAGGAUAUGGACACGGUAUAUCCGAACCAGAAGGCAACCUGC [SS1 Teenbexe 20] (puzzle: Same State 1)	–	47.3	–	–	–	–
